From US20250000991A1 (Eli Lilly, published 2025)

What was measured:
human nectin-4 on cells [1] = molecular target: T1, human nectin-4 on cells (human, UniProt Q96NY8 32-510); test: flow cytometry, SUM190PT cells (high endogenous nectin-4)
T1 construct: also called Nectin-4 receptor
T1 sequence: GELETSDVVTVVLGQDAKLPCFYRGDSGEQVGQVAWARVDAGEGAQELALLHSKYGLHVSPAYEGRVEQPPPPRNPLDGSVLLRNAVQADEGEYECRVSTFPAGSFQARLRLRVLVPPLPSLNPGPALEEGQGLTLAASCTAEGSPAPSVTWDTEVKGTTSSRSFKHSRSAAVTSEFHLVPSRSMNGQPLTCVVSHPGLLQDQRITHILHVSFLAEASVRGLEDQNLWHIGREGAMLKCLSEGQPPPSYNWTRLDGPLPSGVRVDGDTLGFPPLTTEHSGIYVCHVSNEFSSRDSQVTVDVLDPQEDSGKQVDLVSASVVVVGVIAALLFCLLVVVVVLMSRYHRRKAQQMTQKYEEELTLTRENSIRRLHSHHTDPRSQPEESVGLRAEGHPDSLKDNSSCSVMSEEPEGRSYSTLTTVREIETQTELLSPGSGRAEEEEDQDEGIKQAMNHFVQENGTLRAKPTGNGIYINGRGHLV

human nectin-4 on cells [2] = molecular target: T1, human nectin-4 on cells; test: flow cytometry, NCI-H1781 cells (low endogenous nectin-4)
[3] = molecular target: T2, human Nectin-4-eGFP on T24 cells (clone 3) (human, UniProt Q96NY8 32-510); test: cell-based or functional assay
T2 sequence: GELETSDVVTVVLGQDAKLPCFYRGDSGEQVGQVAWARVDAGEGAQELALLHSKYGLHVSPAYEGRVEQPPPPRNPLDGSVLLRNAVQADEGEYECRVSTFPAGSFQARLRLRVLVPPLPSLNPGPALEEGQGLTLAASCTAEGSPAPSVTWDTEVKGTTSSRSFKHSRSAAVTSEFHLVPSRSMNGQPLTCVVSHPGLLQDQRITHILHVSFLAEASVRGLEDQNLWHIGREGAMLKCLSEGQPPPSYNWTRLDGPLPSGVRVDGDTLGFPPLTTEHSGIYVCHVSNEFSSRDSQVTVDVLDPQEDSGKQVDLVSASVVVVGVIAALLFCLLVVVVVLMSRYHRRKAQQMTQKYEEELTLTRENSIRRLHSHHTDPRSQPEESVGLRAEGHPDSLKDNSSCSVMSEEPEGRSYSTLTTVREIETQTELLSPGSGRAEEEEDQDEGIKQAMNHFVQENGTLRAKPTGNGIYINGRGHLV

human nectin-4 on cells [4] = molecular target: T1, human nectin-4 on cells; test: cell-based or functional assay
[5] = molecular target: T3, recombinant HIS-tagged rat nectin-4 (R&D Systems Cat. No. 9997-N4-050) (rat, UniProt D3ZET1 31-348); test: SPR Biacore 8K+, ADC captured via anti-human Fc, nectin-4 analyte, 37 C;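 further: Nectin-4 injected over captured ADC at 0 to 600 nM for 2 min association, then 10 min dissociation, with a reference flow cell lacking ADC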
T3 construct: Bought protein; HIS tag not described
T3 sequence: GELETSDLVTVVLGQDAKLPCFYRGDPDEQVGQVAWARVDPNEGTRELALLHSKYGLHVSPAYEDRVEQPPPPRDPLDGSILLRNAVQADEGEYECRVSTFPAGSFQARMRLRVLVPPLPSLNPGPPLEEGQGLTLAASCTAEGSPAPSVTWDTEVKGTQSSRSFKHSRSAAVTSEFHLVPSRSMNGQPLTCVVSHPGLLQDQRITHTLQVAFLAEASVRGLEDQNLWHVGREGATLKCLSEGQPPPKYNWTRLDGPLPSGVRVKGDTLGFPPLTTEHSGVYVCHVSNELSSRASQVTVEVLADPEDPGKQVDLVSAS

[6] = molecular target: T4, recombinant HIS-tagged human nectin-4 (Acro Biosystems Cat. No. NE4-H52H3) (human, UniProt Q96NY8 32-349); test: as above
T4 construct: Bought protein; not shown: HIS tag
T4 sequence: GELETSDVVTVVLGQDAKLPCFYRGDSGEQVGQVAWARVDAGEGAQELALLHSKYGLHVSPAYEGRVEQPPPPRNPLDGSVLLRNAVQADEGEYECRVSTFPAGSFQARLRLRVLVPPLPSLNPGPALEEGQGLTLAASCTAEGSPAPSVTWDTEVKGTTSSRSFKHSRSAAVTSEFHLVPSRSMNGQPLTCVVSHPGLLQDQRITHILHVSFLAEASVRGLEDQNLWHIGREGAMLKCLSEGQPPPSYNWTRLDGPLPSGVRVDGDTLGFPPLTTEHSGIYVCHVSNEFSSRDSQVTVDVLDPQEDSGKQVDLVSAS

Binder | % of enfortumab (Average Max MFI) (human nectin-4 on cells [1]) [%] | Average Max MFI (human nectin-4 on cells [1]) [MFI] | EC50 (human nectin-4 on cells [1]) [nM] | % of enfortumab (Average Max MFI) (human nectin-4 on cells [2]) [%] | Average Max MFI (human nectin-4 on cells [2]) [MFI] | EC50 (human nectin-4 on cells [2]) [nM] | % activity (max GFP signal loss compared to enfortumab mAb (100%)) [3] [%] | EC50 (nM) of nectin-4-eGFP signal loss [3] [nM] | Cytotoxicity IC50, NCI H1781 cells (human nectin-4 on cells [4]) [nM] | Cytotoxicity IC50, T24 Nectin-4 clone 108 cells (human nectin-4 on cells [4]) [nM] | Kd [5] [nM] | koff [5] [s⁻¹] | kon [5] [M⁻¹ s⁻¹] | Kd [6] [nM] | koff [6] [s⁻¹] | kon [6] [M⁻¹ s⁻¹]
Ab7 (antibody, human IgG1, lambda, L234A L235A, V domains shown, Unconjugated antibody; also called Antibody 7; nectin-4 antibody Ab7) VH: QVQLVQSGAEVKKPGASVKVSCKASGYTFTNYYMHWVRQAPGQGLEWMGIINPSSGSASYAQKFQGRVTMTRDTSTSTVYMELSSLRSEDTAVYYCAREGVGRDILQAFDIWGQGTLVTVSS VL: QSVLTQPPSVSEAPRQRVTISCSGSSSNIGNNAVNWYQQLPGKAPKLLIYYDDLLPSGVSDRFSGSKSGTSASLAISGLQSEDEADYYCAAWDDSLNGHVFGGGTKLTVLG | 112 | 1.2e+06 | 0.14 | 96 | 87000 | 0.09 | 66.5 | 3.37 | – | – | – | – | – | – | – | –
Ab8 (antibody, human IgG1, lambda, L234A L235A, V domains shown, Unconjugated antibody; also called Antibody 8; nectin-4 antibody Ab8) VH: QVQLVQSGAEVKKPGASVKVSCKASGYTFTSYYIHWVRQAPGQGLEWMGIINPISGRTSSAQKFQGRVTMTRDTSTSTVYMELSSLRSEDTAVYYCAKEGVGGELLRAFDIWGQGTLVTVSS VL: QSVLTQPPSVSEAPRQRVTISCSGSSSNIGNNAVNWYQQLPGKAPKLLIYYDDLLPSGVSDRFSGSKSGTSASLAISGLQSEDEADYYCAAWDDSLNGFVFGGGTKLTVLG | 81.9 | 8.7e+06 | 0.11 | 99.6 | 90000 | 0.1 | 53.7 | 3.68 | – | – | – | – | – | – | – | –
Ab6 (antibody, human IgG1, lambda, L234A L235A, V domains shown, Unconjugated antibody; also called Antibody 6; nectin-4 antibody Ab6) VH: QVQLVQSGAEVKKPGASVKVSCKASGYTFTGYYMHWVRQAPGQGLEWMGIINPSGGSTTYAQKFQGRVTMTRDTSTSTVYMELSSLRSEDTAVYYCARGRLGTYFDYWGQGTLVTVSS VL: SYVLTQPPSVSVAPGQTARITCGGNNIGSKSVHWYQQKPGQAPVLVVYDDSDRPSGIPERFSGSNSGNTATLTISRVEAGDEADYYCQVWDRSSDQVVFGGGTKLTVLG | 127 | 1.3e+06 | 0.17 | 93.8 | 85000 | 0.03 | 65.1 | 41.4 | – | – | – | – | – | – | – | –
Ab6 ADC (Ab6 conjugated as in Formula XI, DAR of 8) (antibody, human IgG1, lambda, L234A L235A, V domains shown, camptothecin analog linker-payload of Formula XI on cysteine thiols after full reduction, DAR of 8 per antibody; positions not given, Antibody-drug conjugate of Ab6; also called Ab6 (ADC column)) VH: QVQLVQSGAEVKKPGASVKVSCKASGYTFTGYYMHWVRQAPGQGLEWMGIINPSGGSTTYAQKFQGRVTMTRDTSTSTVYMELSSLRSEDTAVYYCARGRLGTYFDYWGQGTLVTVSS VL: SYVLTQPPSVSVAPGQTARITCGGNNIGSKSVHWYQQKPGQAPVLVVYDDSDRPSGIPERFSGSNSGNTATLTISRVEAGDEADYYCQVWDRSSDQVVFGGGTKLTVLG | – | – | – | – | – | – | 118 | 2.26 | 0.0608 | 0.0783 | 114 | 0.105 | 925000 | 91.8 | 0.163 | 1.78e+06
Ab3 (antibody, human IgG1, kappa, L234A L235A, V domains shown, Unconjugated antibody; also called Antibody 3; nectin-4 antibody Ab3) VH: EVQLVESGGGLVKPGGSLRLSCAASGFNLNHYNMNWVRQAPGKGLEWVSSVSSGGGFRYYADSVRGRFTISRDNAKNSLYLQMNSLRAEDTAVYYCARGAVFHDAFDIWGQGTLVTVSS VL: DIQLTQSPSFLSASVGDRVTITCRASQDISSYLAWYQQKPGKAPKLLIYVASTLQSGVPSRFSGSGSGTEFTLTISSLQPEDFATYYCQQINSYPFTFGQGTKVEIKR | 112 | 1.2e+06 | 0.23 | 105 | 96000 | 0.1 | 64.4 | 1.3 | – | – | – | – | – | – | – | –
Ab4 ADC (Ab4 conjugated as in Formula XI, DAR of 8) (antibody, human IgG1, kappa, L234A L235A, V domains shown, camptothecin analog linker-payload of Formula XI on cysteine thiols after full reduction, DAR of 8 per antibody; positions not given, Antibody-drug conjugate of Ab4; also called Ab4 (ADC column)) VH: QVQLQESGPGLVKPSETLSLTCTVSGGSISGYYWSWIRQPPGKGLEWIGYIYYSGSTNYNPSLKSRVTISVDTSKNQFSLKLSSVTAADTAVYYCARLGIFFDAFDIWGQGTLVTVSS VL: DIQLTQSPSFLSASVGDRVTITCRASQGISSYLAWYQQKPGKAPKLLIYAASTLQSGVPSRFSGSGSGTEFTLTISSLQPEDFATYYCQQFNSYPWTFGQGTKVEIKR | – | – | – | – | – | – | 143 | 2.1 | 0.311 | 0.115 | – | – | – | 204 | – | –
Ab4 (antibody, human IgG1, kappa, L234A L235A, V domains shown, Unconjugated antibody; also called Antibody 4) VH: QVQLQESGPGLVKPSETLSLTCTVSGGSISGYYWSWIRQPPGKGLEWIGYIYYSGSTNYNPSLKSRVTISVDTSKNQFSLKLSSVTAADTAVYYCARLGIFFDAFDIWGQGTLVTVSS VL: DIQLTQSPSFLSASVGDRVTITCRASQGISSYLAWYQQKPGKAPKLLIYAASTLQSGVPSRFSGSGSGTEFTLTISSLQPEDFATYYCQQFNSYPWTFGQGTKVEIKR | 97.9 | 1e+06 | 0.19 | 95.8 | 87000 | 0.14 | 40.9 | 0.41 | – | – | – | – | – | – | – | –
Ab5 (antibody, human IgG1, kappa, L234A L235A, V domains shown, Unconjugated antibody; also called Antibody 5; nectin-4 antibody Ab5) VH: QVQLVQSGAEVKKPGASVKVSCKASGYTFTSYYVHWVRQAPGQGLEWMGIINPSIISTSYAQKFQARVTMTRDTSTSTVYMELSSLRSEDTAVYYCARGLNFDAFDIWGQGTLVTVSS VL: DIQLTQSPSFLSASVGDRVTITCRASQGISSYLAWYQQKPGKAPKLLIYAASTLQSGVPSRFSGSGSGTEFTLTISSLQPEDFATYYCQQLNNYPFTFGQGTKVEIKR | 145 | 1.5e+06 | 0.31 | 102 | 93000 | 0.08 | 40.1 | 2.69 | – | – | – | – | – | – | – | –
Ab1a (antibody, human IgG1, kappa, L234A L235A, V domains shown, Unconjugated antibody; also called nectin-4 antibody Ab1a) VH: QVQLVQSGAQVKKPGASVKVSCKASGYTFTGYYIHWVRQAPGQGLEWMGWINPNSGGTNYAQKFQGRVTMTRDTSISTAYMELSRLRSDDTAVYFCAREDWDFDYWGQGTLVTVSS VL: EIVLTQSPGTLSLSPGERATLSCRTSQSVSSSYLAWYQQKPGQAPRLLIYGASNRATDIPDRFSGSGSGTDFTLTINRLEPEDFAVYYCQQYGSSPITFGQGTRLEIKR | 55.6 | 590000 | 0.12 | 84.5 | 77000 | 0.2 | 145 | 2.54 | – | – | – | – | – | – | – | –
